# Measurements reported in patent US20190382488A1 (IMAGINAB, published 2019).
# Substitutions are numbered along the chain they refer to.
# B1: IAb_M1b_CD8 IgG2 EH (other)
# chain: DVQITQSPSSLSASVGDRVTITCRTSRSISQYLAWYQQKPGKVPKLLIYSGSTLQSGVPSRFSGSGSGTDFTLTISSLQPEDVATYYCQQHNENPLTFGGGTKVEIKGSTSGGGSGGGSGGGGSSEVQLVESGGGLVQPGGSLRLSCAASGFNIKDTYIHFVRQAPGKGLEWIGRIDPANDNTLYASKFQGKATISADTSKNTAYLQMNSLRAEDTAVYYCGRGYGYYVFDHWGQGTLVTVSSERKCCVECPPCPGGGSSGGGSGGQPREPQVYTLPPSREEMTKNQVSLTCLVKGFYPSDIAVEWESNGQPENNYKTTPPMLDSDGSFFLYSKLTVDKSRWQQGNVFSCSVMHEALHNHYTQKSLSLSPGK
# notes: Minibody homodimer with artificial IgG2 hinge-extension and IgG2 CH3
# B2: IAb_M1b_CD8 IgG2 NH (other)
# chain: DVQITQSPSSLSASVGDRVTITCRTSRSISQYLAWYQQKPGKVPKLLIYSGSTLQSGVPSRFSGSGSGTDFTLTISSLQPEDVATYYCQQHNENPLTFGGGTKVEIKGSTSGGGSGGGSGGGGSSEVQLVESGGGLVQPGGSLRLSCAASGFNIKDTYIHFVRQAPGKGLEWIGRIDPANDNTLYASKFQGKATISADTSKNTAYLQMNSLRAEDTAVYYCGRGYGYYVFDHWGQGTLVTVSSERKCCVECPPCPAPPVAGPGQPREPQVYTLPPSREEMTKNQVSLTCLVKGFYPSDIAVEWESNGQPENNYKTTPPMLDSDGSFFLYSKLTVDKSRWQQGNVFSCSVMHEALHNHYTQKSLSLSPGK
# notes: Minibody homodimer with native IgG2 hinge and IgG2 CH3
# B3: IAb_Cys-Db3b_CD8-Df (other)
# chain: DVQITQSPSSLSASVGDRVTITCRTSRSISQYLAWYQQKPGKVPKLLIYSGSTLQSGVPSRFSGSGSGTDFTLTISSLQPEDVATYYCQQHNENPLTFGGGTKVEIKGGGSGGGGEVQLVESGGGLVQPGGSLRLSCAASGFNIKDTYIHFVRQAPGKGLEWIGRIDPANDNTLYASKFQGKATISADTSKNTAYLQMNSLRAEDTAVYYCGRGYGYYVFDHWGQGTLVTVSSGGC
# modifications: Desferoxamine (Df) conjugated to the C-terminal cysteine
# notes: also called Df-labeled cys-diabody
# B4: IAb_Mb1a_CD8 (other)
# chain: DVQITQSPSSLSASVGDRVTITCRTSRSISQYLAWYQQKPGKVPKLLIYSGSTLQSGVPSRFSGSGSGTDFTLTISSLQPEDVATYYCQQHNENPLTFGGGTKVEIKGSTSGGGSGGGSGGGGSSEVQLVESGGGLVQPGGSLRLSCAASGFNIKDTYIHFVRQAPGKGLEWIGRIDPANDNTLYASKFQGKATISADTSKNTAYLQMNSLRAGDTAVYYCGRGYGYYVFDHWGQGTLVTVSSEPKSCDKTHTCPPCGGGSSGGGSGGQPREPQVYTLPPSRDELTKNQVSLTCLVKGFYPSDIAVEWESNGQPENNYKTTPPVLDSDGSFFLYSKLTVDKSRWQQGNVFSCSVMHEALHNHYTQKSLSLSPGK
# notes: also called variant 1a
# B5: IAb_Mb2c_CD8 (other)
# chain: QVQLVQSGAEVKKPGATVKISCKVSGFNIKDTYIHFVQQAPGKGLEWIGRIDPANDNTLYASKFQGKATITADTSTDTAYMELSSLRSGDTAVYYCGRGYGYYVFDHWGQGTLVTVSSGSTSGGGSGGGSGGGGSSDVQITQSPSSLSASVGDRVTITCRTSRSISQYLAWYQQKPGKVPKLLIYSGSTLQSGVPSRFSGSGSGTDFTLTISSLQPEDVATYYCQQHNENPLTFGGGTKVEIKEPKSCDKTHTCPPCGGGSSGGGSGGQPREPQVYTLPPSRDELTKNQVSLTCLVKGFYPSDIAVEWESNGQPENNYKTTPPVLDSDGSFFLYSKLTVDKSRWQQGNVFSCSVMHEALHNHYTQKSLSLSPGK
# notes: also called variant 2c
# B6: IAb_Mb2a_CD8 (other)
# chain: EVQLVESGGGLVQPGGSLRLSCAASGFNIKDTYIHFVRQAPGKGLEWIGRIDPANDNTLYASKFQGKATISADTSKNTAYLQMNSLRAGDTAVYYCGRGYGYYVFDHWGQGTLVTVSSGSTSGGGSGGGSGGGGSSDVQITQSPSSLSASVGDRVTITCRTSRSISQYLAWYQQKPGKVPKLLIYSGSTLQSGVPSRFSGSGSGTDFTLTISSLQPEDVATYYCQQHNENPLTFGGGTKVEIKEPKSCDKTHTCPPCGGGSSGGGSGGQPREPQVYTLPPSRDELTKNQVSLTCLVKGFYPSDIAVEWESNGQPENNYKTTPPVLDSDGSFFLYSKLTVDKSRWQQGNVFSCSVMHEALHNHYTQKSLSLSPGK
# notes: also called variant 2a
# B7: IAb_Mb1d_CD8 (other)
# chain: DVQITQSPSSLSASVGDRVTITCRTSRSISQYLAWYQQKPGKVPKLLIYSGSTLQSGVPSRFSGSGSGTDFTLTISSLQPEDVATYYCQQHNENPLTFGGGTKVEIKGSTSGGGSGGGSGGGGSSQVQLVQSGAEVKKPGATVKISCKVSGFNIKDTYIHFVQQAPGKGLEWIGRIDPANDNTLYASKFQGKATITADTSTDTAYMELSSLRSEDTAVYYCGRGYGYYVFDHWGQGTLVTVSEPKSCDKTHTCPPCGGGSSGGGSGGQPREPQVYTLPPSRDELTKNQVSLTCLVKGFYPSDIAVEWESNGQPENNYKTTPPVLDSDGSFFLYSKLTVDKSRWQQGNVFSCSVMHEALHNHYTQKSLSLSPGK
# notes: also called variant 1d
# B8: IAb_Mb2d_CD8 (other)
# chain: QVQLVQSGAEVKKPGATVKISCKVSGFNIKDTYIHFVQQAPGKGLEWIGRIDPANDNTLYASKFQGKATITADTSTDTAYMELSSLRSEDTAVYYCGRGYGYYVFDHWGQGTLVTVSGSTSGGGSGGGSGGGGSSDVQITQSPSSLSASVGDRVTITCRTSRSISQYLAWYQQKPGKVPKLLIYSGSTLQSGVPSRFSGSGSGTDFTLTISSLQPEDVATYYCQQHNENPLTFGGGTKVEIKEPKSCDKTHTCPPCGGGSSGGGSGGQPREPQVYTLPPSRDELTKNQVSLTCLVKGFYPSDIAVEWESNGQPENNYKTTPPVLDSDGSFFLYSKLTVDKSRWQQGNVFSCSVMHEALHNHYTQKSLSLSPGK
# notes: also called variant 2d
# B9: Humanized IAb_Mb1_CD8 (other)
# chain: DVQITQSPSSLSASVGDRVTITCRTSRSISQYLAWYQQKPGKVPKLLIYSGSTLQSGVPSRFSGSGSGTDFTLTISSLQPEDVATYYCQQHNENPLTFGGGTKVEIKGSTSGGGSGGGSGGGGSSQVQLVQSGAEVKKPGATVKISCKVSGFNIKDTYIHWVQQAPGKGLEWMGRIDPANDNTLYASKFQGRVTITADTSTDTAYMELSSLRSEDTAVYYCARGYGYYVFDHWGQGTLVTVSSEPKSCDKTHTCPPCGGGSSGGGSGGQPREPQVYTLPPSRDELTKNQVSLTCLVKGFYPSDIAVEWESNGQPENNYKTTPPVLDSDGSFFLYSKLTVDKSRWQQGNVFSCSVMHEALHNHYTQKSLSLSPGK
# notes: Minibody homodimer, tested as transfection supernatant; also called humanized OKT8 minibody VL-VH; humanized variants
# B10: Humanized IAb_Mb2_CD8 (other)
# chain: B5 chain with F36W, I48M, K67R, A68V, G89E, G97A
# notes: Minibody homodimer, tested as transfection supernatant; also called humanized OKT8 minibody VH-VL; humanized variants
# Molecular target: T1, cell-surface human CD8 (human, UniProt P01732 22-235)
# T1 construct: the cell is named under assay; also called cellular human CD8; CD8 on PC3-CD8 cells
# Experiment: flow cytometry, HPB-ALL cells
# Description: (§1) Flow cytometry analysis of minibodies binding to cell-surface human CD8 on HPB-ALL cells was performed. Cells were stained with respective concentrations of minibody, washed, and then stained with a secondary anti-human IgG (Fc-specific) APC-conjugated antibody. Analysis was performed with 10,000 events/point in triplicate for each concentration. The results are shown in graph format in FIG. 29A. The graph presents the normalized mean fluorescence intensity (MFI) vs. the log of the concentration (nM). Error bars represent the standard error. The data indicates an EC₅₀ of 0.15 nM and 0.19 nM.
# as §1, with “analysis of IgG2 minibodies binding” for “analysis of minibodies binding”, “in FIG. 29E. The graph” for “in FIG. 29A. The graph”, “EC₅₀ of 0.1 nM, 0.13 nM, and 0.08” for “EC₅₀ of 0.15 nM and 0.19”, “nM, and 0.08 nM.” for “nM and 0.19 nM.”
# T1 sequence (P01732 22-235 limits assumed): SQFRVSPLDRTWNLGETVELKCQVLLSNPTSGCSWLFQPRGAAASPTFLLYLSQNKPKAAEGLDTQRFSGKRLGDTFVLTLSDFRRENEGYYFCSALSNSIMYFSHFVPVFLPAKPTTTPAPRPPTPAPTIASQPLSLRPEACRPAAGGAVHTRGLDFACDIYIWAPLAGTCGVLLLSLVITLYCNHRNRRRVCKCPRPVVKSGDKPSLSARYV
row,EC50,Binder
1,0.13 nM,B1
2,0.08 nM,B2

# Molecular target: T1, cell-surface human CD8
# Experiment: flow cytometry on HPB-ALL cells, Protein L-biotin then streptavidin-APC
# Description: Flow cytometry analysis of cys-diabody (+/−C-terminal cysteine conjugation to Desferoxamine) binding to cell-surface human CD8 on HPB-ALL cells was performed. Cells were stained with respective concentrations of cys-diabody, washed, stained with a secondary Protein L conjugated to Biotin, washed, then stained with a tertiary streptavidin-APC. Analysis was performed with 10,000 events/point in triplicate for each concentration. The results are shown in graph format in FIG. 30C. The graph presents the mean fluorescence intensity (MFI) vs. the log of the concentration (nM). Error bars represent the standard error. The data indicates an EC₅₀ of 0.04 nM and 0.06 nM.
row,EC50,Binder
1,0.06 nM,B3

# Molecular target: T2, recombinant human CD8 (rhCD8) (human, UniProt P01732 22-182)
# T2 construct: Soluble purified recombinant protein; also called purified recombinant human CD8 protein; soluble CD8
# Experiment: SPR (BIAcore), minibody captured via anti-human IgG Fc, hCD8 analyte at 50 nM
# Excerpt: Surface plasma resonance (SPR) was used to determine the binding affinity for all the IAb_Mb_CD8 variants to recombinant human CD8 (Table 8.0). The minibody protein in the supernatant was captured on to the BIAcore chip using an anti-human IgG (Fc-specific) antibody. The amount of minibody captured on the chip was normalized to enable a direct comparison of binding affinity between the variants as a kinetic “scouting” experiment to rank affinities. The rhCD8 protein was passed over the captured minibody protein to measure binding.
# Table 8.0 summarizes the measured association (ka), dissociation (kd), and kD constants for the IAb_Mb_CD8 variants binding to recombinant hCD8. The variants were captured on a BIAcore chip using anti-human Fc-specific IgG antibody.
# T2 sequence (P01732 22-182 limits assumed): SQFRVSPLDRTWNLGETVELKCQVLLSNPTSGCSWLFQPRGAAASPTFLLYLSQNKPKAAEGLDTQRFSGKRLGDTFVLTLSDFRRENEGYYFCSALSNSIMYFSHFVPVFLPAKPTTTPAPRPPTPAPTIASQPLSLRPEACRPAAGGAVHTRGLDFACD
Ka,Kd,koff,kon,Binder
5.3e+08 M⁻¹,1.9 nM,0.0012 s⁻¹,650000 M⁻¹ s⁻¹,B4
2.2e+08 M⁻¹,4.5 nM,0.0032 s⁻¹,720000 M⁻¹ s⁻¹,B5
2.2e+08 M⁻¹,4.6 nM,0.0022 s⁻¹,480000 M⁻¹ s⁻¹,B6
3.4e+08 M⁻¹,2.9 nM,0.002 s⁻¹,700000 M⁻¹ s⁻¹,B7
1.8e+08 M⁻¹,5.5 nM,0.0029 s⁻¹,540000 M⁻¹ s⁻¹,B8

# Molecular target: T1, cell-surface human CD8
# Experiment: flow cytometry on CD8+ cells, transfection supernatant neat to 1:81, anti-human IgG (Fc-specific)-APC
# Description: FIGS. 17A-17D display the results of the flow cytometry analysis of the IAb_Mb_CD8 variants. All histograms show allophycocyanin (APC) signal vs. counts. Supernatants from transfection of the variants at different dilutions were incubated with CD8+ cells. Cells were washed and subsequently stained with a secondary anti-human IgG (Fc-specific) APC conjugated antibody. 1×10⁵ cells were stained per point and analysis was performed with 10,000 events/point.
row,binding result,Binder
1,binds,B9
2,binds,B10

# Molecular target: T1, cell-surface human CD8
# Experiment: flow cytometry on HPB-ALL cells, anti-human IgG (Fc-specific)-APC
# Description: as §1, with “analysis of IgG2 minibodies binding” for “analysis of minibodies binding”, “in FIG. 29E. The graph” for “in FIG. 29A. The graph”, “EC₅₀ of 0.1 nM, 0.13 nM, and 0.08” for “EC₅₀ of 0.15 nM and 0.19”, “nM, and 0.08 nM.” for “nM and 0.19 nM.”
row,EC50,Binder
1,0.13 nM,B1
2,0.08 nM,B2
